# Experiment: yeast display, Sf9 membrane polyspecificity reagent, FACS + sequencing; frameworks hold sequencing errors
# Summary of the method: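 Nanobodies from a synthetic yeast display library (Saccharomyces cerevisiae BJ5465), induced 36–48 hours with galactose, were stained 1 hour at 4 °C with 10% biotinylated, detergent-solubilized Sf9 membrane reagent, enriched on streptavidin microbeads, then FACS-sorted. Anti-HA (expression) and streptavidin (reagent binding) fluorescence set low and high (top ~1%) gates. Polyreactivity labels come from the gate of origin. Genes were colony-PCR amplified, MiSeq 2 × 250 sequenced and filtered by CDR length.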
row,Sequence,polyreactivity (PSR sort gate)
1,QVQLVESGRGLVQAGGSLRLSCAASGSTFRGNAMGWYRQAPGKERELVAAISVTGGSTYYADSVKVRFTISRDNAKNTVYLQMNSLKPEDTAVYYCADRVQRGQYSFVRDYYYWGQGTQVTVSS,high polyreactivity
2,QVQLVESGRGLVQAGGSLRLSCAASGSTFRYYAMGWYRQAPGKERELVAAISYSGGSTYYADSVKGRFTISRDNAKNTVYLQMNSLKPEDTAVYYCASSWYSIGKRYYYWGQGTQVTVSS,high polyreactivity
3,QVQLVESGRGLVQAGGSLRLSCAASGSTFVRNAMGWYRQAPGKERELDAAITSSGGSTYYADSVKGRFTISRDYAKNTVYVQMNRLKPEDTAVYYCGKRRYYRYDYWGLGTQVTVSS,low polyreactivity
4,QVQLVESGRGLVQAGGSLRLSCAASGSTISFYAMGWYRQAPGKERELVAAISFRGGRTYYADSVKGRFTISRDNAKNTVYLQMNSLKPEDTAVYYCNAERYYRYWDKQEDYWGQGTHVTVSS,high polyreactivity
5,QVQLVESGRGLVQAGGSLRLSCAASGTTCLYYTMGWYRQAPGKERELVASISYSGGRTYYADSVKGRFTISRDNAKNTVYLQMNSLKPEDTAVYYCNKKRYYDGYDYWGQGTQVTVSS,high polyreactivity
6,QVQLVESGRGLVQAGGSLRLSCAASVGTFDKNAMGCYRQAPGNERELVAALTYGGGSTYYADSVKGRFTISRDNAKNTVYLQMNSLKPEDTAVYYCAVAIITYPYATGSSYDYWGQGTQVTVSS,low polyreactivity
7,QVQLVESGRGLVQAGGSLRLSCAPSGIIFTSYAMGWYRQAPGKESEFVAAITRSGSRTYYADSVKGRFTISRDNAKNTVYLQMNRLKPEDTAVYYCAARTFHDSSDSYAGGYWGQGTQVTVSS,low polyreactivity
8,QVQLVESGRGLVQAGGSLRLSCAPSGLIFRYYAMGWYRQAPGKEREFVAAISGRGASTYYADSVKGRFTISRDNAKNTVYLQMNSLKPEDTAVYYCATYFPSAVVAFHMDYWGQGTQVTVST,high polyreactivity
9,QVQLVESGRGLVQAGGSLRLSCASSGSTCVRNVMGWYRQAPGKERELVAAISRRGGGTYYADSVKGRFTISRDNAKNTVYLQMNSLKPEDTAVYYCATGSIAAGHYAYNYWGQGTQVTVSS,high polyreactivity
10,QVQLVESGRGLVQAGGTLRISFADSGRIFGNYAMGRYRQAPGKERELVAAIPWRGGRTRYADSVKGRFTISRDNAKNTVYLQMNSLKPEDTAVYYCAAPYTSSGPDDYWGQGTQVTVSS,high polyreactivity
11,QVQLVESGRGLVQAGGTLRLSCAASGSTFGSYAMGWYRQAPGKEREFVATISRSGGRTYYAASVKGRFTISRDNAKNTVYFQMNSLKPEDTAVYYCATDRRYWIGYDYWGPGTQVTVSS,high polyreactivity
12,QVQLVESGRGLVQAGVSLRLSCAASGPTFRGNVMGRYRKAPGKERELVAAINWTGSSTYYADSVKGGFTISRDNAKNTVYLQMNSLKPEDTAVDYCATRIGPHGGGLPRDYWGQGTQVTVSS,low polyreactivity
13,QVQLVESGRGLVQTGGSLRLSCAASGLVNAMGWYRQAPWKERELVAAISSGGSTYYADSVKGRFTISRDNAKNTVYLQMNSLKPEDTAVYYCNAVYFRHYGYGYWGQGTQVTVSS,low polyreactivity
14,QVQLVESGRRLVQAGGSLRLSCAASGRIFGAYARGWSRQAPGKEREMVAAITSRGGNTYYADSVKGRFTISRDNAKNTVYLQMNSLKPEDTAVYYCRYDIWVWWSGAYDYWGQGTQVTVSS,low polyreactivity
15,QVQLVESGTGLVQAGGSLRLSCAASGSIFAYYAMGWYRHAPGKERELVAAISSRGGNTYYADSVKGRFTISRDNAKNNVYLQMNSLKPEDTAVYYCAADYQYSYGEYDYWGHGTQVTVSS,high polyreactivity
16,QVQLVESGVCLVQAGGSLRLSCAASGIIISTYAMGWYRQAPGKERELVAAITWGGTRTNYADSVKGRFTISRDNAKNTVYLQMKSLKPEDTAVYYCAASYVRDSYTHGSWGQGTQVTVSS,low polyreactivity
17,QVQLVESGVGIVQAGGSLRLICAASGSTFTIYAMGWYRQAPGKERELVAAITWNGGSTYYADSVKGRFTISRDNAKKTVYLQMNSLKPEDTAVYYCAAKFRYQYVRVAREYYYWGQGTQVTVSS,high polyreactivity
18,QVQLVESGVGIVQAGGSLRLSCAASGRIFFTYAMVWYRQAPGKERELVASITGSGGSTYYADSVKGRFTISRDNAKNTVYLQMNSLKPEDTAVYYCAAALFRRQLYRKFYYWGQGTQVSVSS,low polyreactivity
19,QVQLVESGVGIVQAGGSLRLSCAASGRIISGYAMGWYRHAPGKERELVATISSGGGTNYADSVKGRFTISRDNAKNTVYLQMNSLKPEDTAVYYCNKAWGYWSIRGVTHRYGYWGQGTQVTVSS,high polyreactivity
20,QVQLVESGVGLVKAGGSLRLSCAASGSTFRGYAMGWYRQAPGKERELVAAITYISDTTNYADSVKGRFTISRDNAKNTVYLQMNSLKPDDTAVYYCNAYYDGVWRYTSQETGDHWGQGTQVTVSS,low polyreactivity
21,QVQLVESGVGLVKAGGSLRLTCAASGSIFDNYPMGWYIQAPGKERELVAAISGRGGSTYYADSVKGRFTISRDNAKNSVYLQMNSLKPEVTAVYYCNALVHQTYYDYEYWGQGTQVTVSS,high polyreactivity
22,QVQLVESGVGLVQAGGILRLSCAASGFIFCQYSMGWYRQAPWKERELVAAISSVGTTNYADSVKGSFTISRDNAKNTVYLQMNSLKPEDTAVYYCNADSLVEYWDYDYWGQGTQVTVSS,low polyreactivity

row,Sequence,polyreactivity (PSR sort gate)
1,QVQLVESGVGLVQAGGSHRFICAASGIIFYSYAMGWYRQAPGKEREFVAAITNSDGSTYYADTVKRRFTISRDNAKNTVYLQMNSLKPVDTAVYMYYWGQGTQVTVSS,low polyreactivity
2,QVQLVESGVGLVQAGGSLLLSCAASGRTFSYNPMGSYRQAPGKERELVALISSGGSTNYADSVKGRFTISRDNAKNTVYLQMNSLKPEDTALYYCNAGSYVWEEDYWGQGTQVTVSS,high polyreactivity
3,QVQLVESGVGLVQAGGSLPLSCAASGRTFRYYTMGSYRQAPGKERELVAAITQSGDSTYYADSVKGRFTISRDNAKNTFYLQMNSLKPEDTAVYYCNKAWRRRGLYDYWGQGTQVTVSS,high polyreactivity
4,QVQLVESGVGLVQAGGSLRLICAATGYTFKRTAMRWSRQAPGKEREFVAAINIRGSSTYYADSVKGRFTISRDNPKNTVYLQMISLKPEDTAVYYCNAVTRYGYYWGEGTQVTVSS,high polyreactivity
5,QVQLVESGVGLVQAGGSLRLSCAASGCIFIKYAMGWSRQAPGKERELVASITISSGRTYYADSVKGRFTISRDNAKNTVYLQMISLKPEDTAVYYCAAVSLWYSAYEYWGQGTQVTVSS,high polyreactivity
6,QVQLVESGVGLVQAGGSLRLSCAASGFIFHRYAMGWYRQAPGKERELVAGITSSGGSTYYADSVKGRFTISRDNAKNTVYLQMNSLKPEDTAVYYCNADSWLYRFFGYDYWGQGTQVTVSS,low polyreactivity
7,QVQLVESGVGLVQAGGSLRLSCAASGFIFYSYAMGWYRQAPGKERELVAAISRSGGITYYADSVKGRFTISRDNAKNTVYLQMNSLKPEDTAVYYCAKVGRGVSSIKDMDSWGQGTQVTVSS,high polyreactivity
8,QVQLVESGVGLVQAGGSLRLSCAASGFTFRYYAMGWYRQAPGKERELVAAIRSGGRTYYADSVKGRFTISRDNAKNTVYLQMNSLKPEDTAVYYCNAKYKYSRGYDYWGQGTQVTVSS,high polyreactivity
9,QVQLVESGVGLVQAGGSLRLSCAASGGIFVPYAMGWYRQAPGKEREWVARIRSGGTTNYADSVKGRFTISRDNAKNTVYLQRNSLKPEDTAVYYCAVAAGIPQRRDYYWGQGTQVTVSS,high polyreactivity
10,QVQLVESGVGLVQAGGSLRLSCAASGGTFPYYAMGWYRQAPGKERELVAAISRSGARTYYADSVKGRFTISRDNAKNTVYLQMNSLKPEDTAVYYCATDNTYGYDYWGQGTQVTVSS,high polyreactivity
11,QVQLVESGVGLVQAGGSLRLSCAASGIIFDDYAMGWYRQAPGKERELVAGINESGDSTYYADSVKGRFTISRDNAKNTVYLQMNSLKPEDTAVYYCAAQLYYWWYDYWGQGTQVTVSS,high polyreactivity
12,QVQLVESGVGLVQAGGSLRLSCAASGIIFRYYAMGWYRQAPGKERELVAAISSSGVSTYYADSVKGRFTISRDNAKNTVYLQMNSLKPEDTAVYYCNAVIWVRQYFSRSSSNYWGQGTQVTVSS,high polyreactivity
13,QVQLVESGVGLVQAGGSLRLSCAASGIIFYDYVMGWYRPAPGKEWELVAAISRSGGSTYYADSVKGRFTISRDNAKNTVYLQMNSLKPEDTAVYYCAADTVVTEMEYCGQGTQVTVSS,high polyreactivity
14,QVQLVESGVGLVQAGGSLRLSCAASGISFLVYAMGWYRQAPGKERELVAAISADAGGTYYADSVKGRFTISRDNAKNNVYFQMNSLKPEDTAVYYCNVDGRSDGDDYWGQGTQVTVSS,low polyreactivity
15,QVQLVESGVGLVQAGGSLRLSCAASGISFVGNAMGWYRQAPGKERELVASINSGGSTYYADSVKGRFTISRDNAKYTVYLQMNSLKPADTAVYYCAVEEDRYYYDDYDYWGQGTQVTVSS,low polyreactivity
16,QVQLVESGVGLVQAGGSLRLSCAASGITFDENTMGWYIQAPGKERELVAAITEIGGSTYYADSVKGRFTISRDNAKNTVYLQMNSLKPEDTAVYYCNADRWVVRFVDYEYWGQGTQVTVSS,low polyreactivity
17,QVQLVESGVGLVQAGGSLRLSCAASGITFRSYAMGWYRQAPGKERELVAAIRSGGSTSYADSVKGRFTISRDNAKNTVYLQMNSLKPEDTAVYYCAAGGYVPLPDITFWKFGYWGQGTQVTVSS,low polyreactivity
18,QVQLVESGVGLVQAGGSLRLSCAASGLIFYKYAMGWYRQAPGKERELVAAITRGGGSTSYADSVKGRFTISRDNAKNTVYLQMNSLKPEDTAVYYCNAAPYTRALQGEFDYWGQGTQVTVSS,high polyreactivity
19,QVQLVESGVGLVQAGGSLRLSCAASGLTFATNAMGWYRQAPGKERELVAAITGSGGSTNYADSVKGRFTISRDNAKNTVYLQMNSLKPEDTAVYYCAADLLWEPSRGYRGDYWGQGTQVTVSS,low polyreactivity
20,QVQLVESGVGLVQAGGSLRLSCAASGNIFGVYAMGWYRQAPGKERELVATITTGGSTYYADSVKGRFTISRDNAKNTVYLQMNSLKPEDSAVYYCAADVGGGNYVYYGNDYDDGYWGQGTQVTVSS,low polyreactivity
21,QVQLVESGVGLVQAGGSLRLSCAASGNTFTAYSMGWYRQAPGKERELVAAISSSGRTNYADSVKGRFTISRDNAKNTVYLQMNSLKPADTAVYYCAAAALRRNGVREGNYWGQGTQVTVSS,high polyreactivity

# From the nanobody polyreactivity screen of Harvey et al. (2022)
